The source of these data is PMC5364462.

This experiment addresses Myr-GCN4-GFP. The experiment can be described thus: fluorescence correlation spectroscopy (FCS); GFP-tagged membrane control proteins in live cells, same instrument and illumination conditions; cell line not stated; median molecular brightness.

With Myr-GCN4-GFP, the median molecular brightness came out at 746 cpsm.
